Experiments:
[1] = target: T1, binding of biotinylated Src40-49 to Tat-ND2 310-321 (Homo sapiens, UniProt P03891); assay: Competition ELISA, binding of biotinylated Src40-49 to pre-coated Tat-ND2 310-321; details: FIG. 5E
T1 construct: 10; Tat-ND2 310-321; […]
Procedure: Competition ELISAs were also performed. […] In a similar manner, ND2 constructs bearing amino acid sequences from the 300-321 region are able to act as inhibitors of the interaction between ND2 and Src.

ND2 310-321 = target: T2, ND2 310-321 (Homo sapiens, UniProt P03891); assay: Dot blot of Src fragments probed with biotinylated ND2 310-321; format: binding; details: FIG. 5A
T2 construct: 7; NVKMKWQFEHTK
Procedure: Src40-49-Tat indicate a fusion peptide in which the human HIV-1 tat protein transduction domain [[…]] […] (SEQ ID NO:10). […] The peptides were plated at a concentration of ˜5 uM.

rats subjected to 3PVO = assay: Three pial vessel occlusion (3PVO) model of stroke, infarct volume; format: in vivo, rat; details: 3 nmol/g intravenous one hour post-surgery; 24 hours after surgery; n=10
Procedure: The efficacy of ND2 inhibitors in the treatment of stroke was examined using the three pial vessel occlusion (3PVO) model of stroke. This is a permanent model of stroke that creates small but consistent infarcts at 24 hours.
Male Sprague Dawley rats (n=10 in each group) were surgically subjected to permanent occlusion of the pial vessels. One hour post-surgery, animals were given an intravenous injection of Saline, Tat-NR2B9c (Aarts et al, Science, 2002), Src 40-49-Tat or Tat-ND2 310-321 and allowed to further recover in their cages. 24 hours after surgery, brains were harvested, sliced and incubated with TTC to visualize the areas of infarction. The infarct volume of each animal was determined, as well as the average volumes for each group of ten.
Both peptides were myristoylated via an amide bond to the alpha-amino group of the N-terminal amino acid of the peptide.
Male Sprague Dawley rats (n=10 in each group) weighing between 230 and 290 g were used for this study. Experiments were performed on fasted rats (Free overnight access to water but not food). For permanent three pial vessel occlusion (3PVO) was performed as described previously (Forder J et al., 2005, supra). In brief, rats were anesthetized with a 0.5 ml/kg intramuscular injection of ketamine (100 mg/kg), acepromazine (2 mg/kg), and xylazine (5 mg/kg), supplemented with one-third of the initial dose as required. An anal temperature probe was inserted, and the animal was placed on a heating pad maintained at 37° C. The skull was exposed via a midline incision and scraped free of tissue. Using a dissecting microscope and a pneumatic dental drill, a 6- to 8-mm cranial window was made over the right somatosensory cortex (2 mm caudal and 5 mm lateral to bregma) by drilling a rectangle through the skull and lifting off the piece of skull while keeping the dura intact. The 3 pial arteriolar middle cerebral artery branches around the barrel cortex were selected and electrically cauterized through the dura. After the cauterizations, the scalp was sutured. […]

[2] = target: T3, ND2, Src, NMDAR subunits, and PSD95 in hippocampal neurons (Rattus norvegicus, UniProt P11662+Q9WUD9); assay: Immunocytochemistry colocalization in 14DIV hippocampal neurons; format: cell-based; details: 1 uM peptide for 1 h, day 14 neurons
T3 construct: endogenous in cells; host or cells: primary hippocampal neurons from E17/E18 Wistar rats, 14 DIV
Procedure: A series of experiments was performed to examine the localization of ND2, Src, NMDAR subunits, and PSD95 in hippocampal neurons by immunocytochemistry in the presence of Tat, Tat-ND2 310-321, or Src 40-49-Tat. Briefly, hippocampal neurons were isolated from embryonic day #17/E18 Wistar rats, and cultured in neurobasal media containing coverslips with B27 and glutamax. Cells were then treated for 1 hr with luM peptide before fixing by standard methods. Proteins were visualized using specific antibodies and secondary antibodies coupled to fluorescent molecules. Colocalization of fluorescence was calculated by merging the images in Photoshop and calculating the % colocalized between pairs as the total colocalized fluorescence clusters divided by the total number of clusters (e.g., % colocalized ND2 with Src=(total colocalized)/(total ND2 clusters); % colocalized Src with ND2=(total colocalized)/(total Src clusters)).
Hippocampal neurons cultured on coverslips were treated with 1 uM of Src 40-49-Tat, Tat-ND2 310-321 or Tat for 1 h at the day 14. Then neurons were incubated in 4% paraformaldehyde and 4% sucrose in phosphate-buffered saline (PBS) for 10 minutes followed by 5 minutes […] at room temperature (RT). Cells were permeabilized with 0.25% Triton X-100 in PBS for 5 minutes and by treatment with 5% donkey serum in PBS for 30 minutes at RT. The cultures were incubated with a mixture of the primary antibodies, raised in various species, in 0.25% Triton X-100 PBS for 2 hours at RT, washed, and incubated for 1 hour at RT with a mixture of species-specific secondary antibodies all raised in donkey and conjugated to either Texas Red, or FITC fluorophores (1:200 dilution in 0.25% Triton X-100 PBS). The coverslips were washed with PBS and mounted using ProLong Gold antifade reagent (Invitrogen). Images were collected using a 60× pan-fluor objective on a Nikon Eclipse TE 200 microscope. The images were analyzed with PhotoShop 7 (Adobe, San Jose, Calif.). Brightness and contrast were adjusted, sharpened using the unsharpen mask tool, and the images were merged for color colocalization.
For quantification of the colocalization, the maximum intensities of the fluorophore channels were normalized and the background fluorescence of each channel seen in the dendrites was subtracted, the color images were merged. Two clusters in two different channels were considered colocalizing when at least 66% of the surface of one clusters in one of the two channels overlapped with a clusters in the other channel. For each combination of antibodies, three independent immunofluorescence experiments were done. Each measurement was taken from a 50-m-long dendritic segment (with an average width of 2 m). Colocalization was expressed as the percent of the total clusters analyzed.

[3] = target: T4, NMDAR signaling complex in cultured hippocampal neurons (Rattus norvegicus, UniProt P11662+Q9WUD9); assay: Co-immunoprecipitation from cultured hippocampal neurons; format: cell-based; details: IP anti-NR2B; 1 uM for 1 hour or 3 uM for 2 hours
T4 construct: endogenous in cells; host or cells: primary hippocampal neurons from E17/E18 Wistar rats, 14 DIV
Procedure: We next examined the effect of Tat-ND2 310-321 and Src40-49-Tat on the association of proteins in the NMDAR signaling complex in cultured hippocampal neurons at 14DIV. Neurons were treated with Tat-ND2 310-321 or Src40-49 at 1 uM for 1 hour (FIG. 13A) or at 3 uM for 2 hours (FIG. 13B). Cell lysates were purified and immunoprecipitated with anti-NR2B (left) and then stained with anti NR2B, anti-PSD95, anti-Src and anti-ND2 antibodies.
NMDAR and its associated proteins were prepared from cultured hippocampal (HP) neurons or rat brains. For in vitro competition experiments, two week HP neurons were collected after treatment with Src 40-49-Tat, Tat-ND2 310-321 or Tat peptides for 1 h at luM concentration or for 2 hours at 3 uM concentration then cells were quickly harvested and homogenized.
Lysates were incubated with Dynabeads protein G (Invitrogen) and selected antibodies for 30 minutes at room temperature. Isolated immunoprecipitates were resolved using SDS-PAGE and transferred to nitrocellulose membranes. The membranes were probed with selected detection antibodies, then stripped and reprobed with other detection antibodies.

[4] = test system: Formalin, CFA and peripheral nerve constriction pain models; details: Liu et al. 2008; cited from earlier work
NMDA currents = details: Liu et al. 2008; cited from earlier work
[5] = test system: association of Src and ND2; details: Liu et al. 2008; cited from earlier work
[6] = target: T5, NMDA Receptor complex in rat brains subjected to 3PVO (Rattus norvegicus, UniProt P11662+Q9WUD9); assay: Co-immunoprecipitation from rat brains subjected to 3PVO stroke; format: in vivo; details: injection 1 hour post-surgery, harvest 2 hours post-surgery; compared with Tat-ND2 310-321
T5 construct: from tissue; host or cells: rat brain cortex (ipsilateral and contralateral hemispheres) after 3PVO ischemia
Procedure: The status of these proteins was next examined in rat brains that had been subjected to a 3PVO stroke. After 3PVO ischemia, rodents were given either Tat-ND2 310-321 or saline via tail vein injection. At one hour post-surgery, the brains were quickly harvested and lysed. Following IP with anti NR2B antibodies, the membranes were incubated with anti phosphotyrosine antibodies, developed, and subsequently probed with anti Src, phosphorylated Src (pTys) and anti PSD95 antibodies. As an internal control, both the ipsilateral and contralateral hemispheres (I and C, respectively) were prepared.
A second set of experiments was performed on animals subjected to 3PVO, modified such that the saline, Src 40-49-Tat or Tat-ND2 310-321 was administered by tail vein injection 1 hour post-surgery and the brains were harvested and lysed 2 hours post-surgery.
For in vivo experiments, one hour after 3PVO ischemia, rats were injected with indicated peptides or saline by intravenous tail vein. Two hours after surgery (one hour after administration of compounds), the selected cortex of the brain was quickly harvested and homogenized.
Lysates were incubated with Dynabeads protein G (Invitrogen) and selected antibodies for 30 minutes at room temperature. Isolated immunoprecipitates were resolved using SDS-PAGE and transferred to nitrocellulose membranes. […]

T1 sequence (P03891 other isoform, or with tags, fused parts or gaps): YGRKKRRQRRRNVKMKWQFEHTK

KPASADGHRGYGRKKRRQRRR [Src 40-49-Tat]
inhibition of binding of biotinylated Src40-49 to Tat-ND2 310-321 (competition ELISA) [1]: inhibited
binding of biotinylated ND2 310-321 (dot blot) (ND2 310-321): bound ND2 310-321
reducing infarct volumes (statistical effect) (rats subjected to 3PVO): not statistically effective
association (colocalization) between ND2 and NR2B [2]: do not significantly affect
colocalization between PSD95 and NR2B [2]: similarly disrupted
colocalization of ND2 with PSD95 [2]: reduces the colocalization of ND2 with PSD95
colocalization of Src and ND2 [2]: able to reduce the amount of colocalization of Src and ND2
colocalization between NR2B and Src ([2]; FIG. 10): able to reduce the colocalization
colocalization between PSD95 and Src ([2]; FIG. 11): able to reduce the colocalization
association of NR2B with Src [3]: reduces the association of NR2B with Src
effect on inflammatory and neuropathic pain [4]: beneficial effect
NMDA currents (NMDA currents): reduced NMDA currents
association of Src and ND2 in neuronal lysates [5]: disrupt the association of Src and ND2 in neuronal lysates
uncoupling PSD95 and Src from the NMDA Receptor [6]: not nearly as effective

Reference: patent publication US9073976B2, “ND2 peptides and methods of treating neurological disease” (NoNO Inc., priority 2010, dated 2015)
